Assay results taken from the RNAGym collection of RNA variant scans (doi:10.7554/elife.90254).

B1: LINE1-full (parent)
chain: UACGUAGGUGGUUUUCCCCUGAUAGUGCUAAGGGGGCCUGGAAGUUUGGACUGGGCAGAGCUCAACACAGCGUGGCAAAGUGGCUGUGGCUAGACUGCCUCUCUGGAUUCCUCGUCACUCAGCAGGGCAUCUCUGAGAGAAAUGCC

Variants of: B1
Assay: self-cleavage, relative activity (ratio to wild type); higher = more cleavage; in vitro, sequencing; the parent is a self-cleaving ribozyme

Row | Variant | self-cleavage
1 | UACGUAGUUGGUUUUCCCCUGAUAGUGCCAAGGGGGCCUGGAAGUUUGGACUGGGCAGAGCUCAACACAGCGUGGCAAAGUGGCUGUGGCUAGACUGCCUCUCUGGAUUCCUCGUCACUCAGCAGGGCAUCUCUGAGAGAAAUGCC [G8U U29C] | 1.99
2 | UACGUAGGUGGUUUUCCCCUGAUAGUGCUAAGGGGGCCUGGAAGUUUGGACUGGGCAGAGCUCACCACAGCGUGGCAAAGUGGCUGUGGCUAGACUGCCUCUCUGGAUUCCUCGUCACUCAGCAGGGCGUCUCUGAGAGAAAUGCC [A65C A129G] | 0.09
3 | UACGUAGGUGGUUUUCCCAUGAUAGUGCUAAGGGGGCCUGGAAGUUUGGACUGGGCAGAGCUCAACACAGCAUGGCAAAGUGGCUGUGGCUAGACUGCCUCUCUGGAUUCCUCGUCACUCAGCAGGGCAUCUCUGAGAGAAAUGCC [C19A G72A] | 1.07
4 | UACGUAGGUGGUUUUCCCCUGAUAGUGCUGAGGGGGCCUGGAAGUUUGGACUGGGCAGAGCUCAACACAGUGUGGCAAAGUGGCUGUGGCUAGACUGCCUCUCUGGAUUCCUCGUCACUCAGCAGGGCAUCUCUGAGAGAAAUGCC [A30G C71U] | 0.85
5 | UACGUAGGUGGUUUUCCCCUGAUAGUGCUAAGGGGGCCUGGAAGUUCGGACUGGGCAGAGCUCAACACAGCGUGGCAAAGUGGCUGUGGCUAGACUGCCUCUCUGGAUUCCUCGUCACUCAGCAGGGAAUCUCUGAGAGAAAUGCC [U47C C128A] | 0.73
6 | UACGUAGGUGGUUUUCCCCUGAUAGUGCUAAGGGGGCCUGGAAGUUUGGACUGGGCAGAGCUCAACACGGCGUGGCAAAGUGGCUGUGGCUAGACUGCCUCUCUAGAUUCCUCGUCACUCAGCAGGGCAUCUCUGAGAGAAAUGCC [A69G G105A] | 0.62
7 | UACGUAGGUGGUUUUCCCCUGAUAGGGCUAAGGGGGCCUGGAAGUUUGGACUGGGCAGAGCUCAACACAGCGUGGCAAAGUGGCUGUGGCUAGACUGCCUCUCUGGAUUCCUCGUCACUCCGCAGGGCAUCUCUGAGAGAAAUGCC [U26G A121C] | 1.31
8 | UACGUAGGUGGUUUUCCCCUGAUAGUGCUAAUGGGGCCUGGAAGUUUGGACUGGGCAGAGCUCAACACAGCGUGGCAAAGUGGCUGUGGCUAGACUGCCUCUCUGGAUUCCUCGUCGCUCAGCAGGGCAUCUCUGAGAGAAAUGCC [G32U A117G] | 1.13
9 | UACGUAGGUGGUUUUCCCUUGAUAGUGCUAAGGGGGCCUGGAAGUUUGGACUGGGCAGAGCUCAACACAGCGUGGCAAAGUGGCUGUGGCUAGACUGCCUCUCUGGAUUCCUCGUCACUCUGCAGGGCAUCUCUGAGAGAAAUGCC [C19U A121U] | 1.03
10 | UACGUAGGUGGUUUUCCCCUGAUAGUGCUAAGGGGGCCUGGAAGUUUGGACUGGGCAUAGCUCAACACAGCGUGGCAAAGUGGCUGUGGCUAGACUGCCUCUCUGGAUUCCUCGCCACUCAGCAGGGCAUCUCUGAGAGAAAUGCC [G58U U115C] | 0.04
11 | UACGUGGGUGGUUUUCCCCUGAUAGUGCUAAGGGGGCCUGGAAGUUUGGACUGGGCAGAGCUCAACACAGCGUGGCAAAGUGGCUGUGGCUAGACUGCCUCUCUGAAUUCCUCGUCACUCAGCAGGGCAUCUCUGAGAGAAAUGCC [A6G G106A] | 0.66
12 | UACGUAGGUGGUUUUCCCCUGAUAGUGCUAUGGGGGCCUGGAAGUUUGGACUGGGCUGAGCUCAACACAGCGUGGCAAAGUGGCUGUGGCUAGACUGCCUCUCUGGAUUCCUCGUCACUCAGCAGGGCAUCUCUGAGAGAAAUGCC [A31U A57U] | 0.24
13 | UACGUAGGUGGUGUUCCCCUGAUAGUGCUAAGGGGGCCUGGAAGUUUGGACUGGGCAGAGCUCAACACAGCGUGGCAAAGUGGCUGUGGCUAGACUGCCUCUCUGGAUUCCUCGUCACUCAGCAGGGCAUCUCUGAGAGAGAUGCC [U13G A141G] | 0.94
14 | UACGUAGGUGGUUUUCCCCUGAUAAUGCUAAGGGGGCCUGGAAAUUUGGACUGGGCAGAGCUCAACACAGCGUGGCAAAGUGGCUGUGGCUAGACUGCCUCUCUGGAUUCCUCGUCACUCAGCAGGGCAUCUCUGAGAGAAAUGCC [G25A G44A] | 1.16
15 | UACGUAGGUGGUUUUCCCCUGAUAGUGCUAAGGGGGCCUGGAAGAUUGGACUGGGCGGAGCUCAACACAGCGUGGCAAAGUGGCUGUGGCUAGACUGCCUCUCUGGAUUCCUCGUCACUCAGCAGGGCAUCUCUGAGAGAAAUGCC [U45A A57G] | 1.01
16 | UACGUAGGUGGUGUUCCCCUGAUAGUGCUAAGGGGGCCUGGAAGUUUGGACUGGGCAGAGCUCAACACAGCGUGGCAAAGUGGCUGUGGCUAGACUGCCCCUCUGGAUUCCUCGUCACUCAGCAGGGCAUCUCUGAGAGAAAUGCC [U13G U100C] | 1.17
17 | UACGUAGGUGGUUUUCCCCUGAUAGUGCUAAGGGGGCCUGGAAGUUUGGACUGGGAAGAGCUCAACACAGCGUGGCAAAGUGGCUGUGGCUAGACUGCCUCUCUGGAUUCCUCGUCACUCAGCAGGGCAGCUCUGAGAGAAAUGCC [C56A U130G] | 0.03
18 | UACGUAGGUGGUUUUCCCCUGACAGUGCUAAGGGGGCCUGGAAGUUUGGACUGGGCAGAGCUCAACACAGCGUGGCAAAGUGGCUGUGGCUAGACUGCCUCUCUGGAUUCCUCGUCACUCAGCAGGGCAUCUAUGAGAGAAAUGCC [U23C C133A] | 1.09
19 | UACGUAGGUGGUUCUCCCCUGAUAGUGCUAAGGGGGCCUGGAAGUUUGGACUGGGCAGAGCUCAACACAGCGUGGCAAAGUGGCUGUGGCUAGACUGCCUCUCUGGAUUCCUCAUCACUCAGCAGGGCAUCUCUGAGAGAAAUGCC [U14C G114A] | 1.06
20 | UACGUAGGUGGUUUUCCCCUGAUAGUGCUAAGGGGGCCUGGAAGUUAGGACUGGGCAGAGCUCAACACAGCGUGGCAAAGUGGCUGUGGUUAGACUGCCUCUCUGGAUUCCUCGUCACUCAGCAGGGCAUCUCUGAGAGAAAUGCC [U47A C90U] | 0.03
